Experiment: yeast display, Sf9 membrane polyspecificity reagent, FACS + sequencing; frameworks hold sequencing errors
In short: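 A synthetic nanobody library was expressed on Saccharomyces cerevisiae BJ5465 by galactose induction for 36–48 hours. The library was stained for 1 hour at 4 °C with 10% biotinylated, detergent-solubilized Sf9 membrane reagent and enriched with streptavidin microbeads before FACS. Low and high (top ~1%) gates were set on anti-HA fluorescence for expression and streptavidin fluorescence for reagent binding, and each polyreactivity label reflects the gate of origin.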

## QVQLVESGGRLVQAGGSLRLSCAASGLIFVHYAMGWYRQSPGKERELVAAISAGGGSTYYADSVKGRFTISRDNAKNTVYLQMNSLKPEDTAVYYCNARVVNYVRPRTGAREYDFWGQGTQVTVSS
  polyreactivity (PSR sort gate): high polyreactivity

## QVQLVESGGGLVQAGGSLRLSCAASGFIFSRYAMGWYRQAAGKERELVAAISYSGSSTYYADSVKGRFTISRDNAKNTVFLQMNSLKPEDTGVYYCNAVTQITGSSDGDYWGQGTQVTVSS
  polyreactivity (PSR sort gate): high polyreactivity

## QVQLQESGGGLAQAGGSLRLSCAASGTIFPADSMGWYRQAPGKERELVAGITTGANTYYADSVKGRFTISHDNAKNTVYLQMDSLIPEDIALYYCAAPGSSTYDLEYWGQGTQVTVSS
  polyreactivity (PSR sort gate): high polyreactivity

## QVQRVESGGGLVQAGGSLLLSCAASGRIFYRSAMGWYRQAPGKESELVASISWSGGSTYYADSVKGRFTISRDNAKNTVYLQMNSLKPEDTAVYYCAARSYRYSYRYRAFDYWGQGTQVTVSS
  polyreactivity (PSR sort gate): high polyreactivity

## QVQLVESGGGLVQAGGSLRLSCAASGTFTSNAMGWYRQAPGKERELVAVITGGGRTNYADSVKGRFTISRDNAKNTVYLQMNSLKPEDTAVYYCAAEVYLPYYERYDYWGQGTQVTVSS
  polyreactivity (PSR sort gate): low polyreactivity

## QVQLVESGGGLVQAGGSLRLSCADSGITIVWYAIGWYRQAPGKERELVAAISRGGGSTYYADSVKGRFTISRDNAKNTVYLQMNSLKPEDTAVYYCAASGGYTFDWLEFDYWGQGTQVTVSS
  polyreactivity (PSR sort gate): low polyreactivity

## QVQLVESGGCLVQAGGSLRLSCAASGYIFGYNAMGWYRQAPGKERELVAAISYSGGSTYYADSVKGRFTISRDNAKNTVYLQMNSLKPVDTAVYYCAAGAKWIYHYYSSLQYGYWGQGTQVTVSS
  polyreactivity (PSR sort gate): high polyreactivity

## QVQIVESGGGIVQAGGSLRLSCAASGRTLQTYVMGWYRQSPGKEREWVAAITRGGGSTYYADSVKGRFTISRDNAKNTVYLQMNSLKPEDTAVYYCAASALRFNSSFSHWYNYWGQGTQVTVSS
  polyreactivity (PSR sort gate): high polyreactivity

## QVQLVESGGGLVQAGGSLRLSCAASGGIFPYYAMGLYRQAPGKERELVADISSGGSTYYEDSVKGRFTISRDNAKNTVYLQMNSLKPEDTAVYYCAAEDTLAGSVARFGEYDYWGQGTQVTVSS
  polyreactivity (PSR sort gate): low polyreactivity

## QVQLVESGGGLVQAGGSLRLSCAASGRIFLLNPMGWNRQATGKERELVARNSSGRTYYADSVKGRFTISRVNAKNTVYLHMKSLKPEDTAVYYCNATVSSSKYRYFYVNPYDYWGQGTQVTVSS
  polyreactivity (PSR sort gate): low polyreactivity

## QVQLVESGGGLVQAGGSLRLSCAASGSTFWPYTMGWYRQAPGKERELVAAISLSGGSTYYADSVKGRFTISRDNAKNTVYLQMNSLKPEDTAVYYCAAEGGYQNWHYLYDYWGQGTQVTVSS
  polyreactivity (PSR sort gate): low polyreactivity

## QVQLVESGGGLVQAGGSLRLSCAASGRTFGRNAMGWYRQAPGKEREFVAAISYRGGSTYYADSVKGRFTISRDNAKNTVYLQMNSLKPEDTAVYYCAVRFSAPGYYYWGQGTQVTVSS
  polyreactivity (PSR sort gate): high polyreactivity

## QVQLVESGGGLVQAGGSLRLSCAASGSIFKWYAMGWYRQAPGKERELVAVISSGGNTYYADSVKGRFTISRDNAKNTVYLQMNSLKPEDTAVYYCAARVTSHMYYWGQGTQVTVSS
  polyreactivity (PSR sort gate): high polyreactivity

## QVQLVESGGGLVQAGGSLRLSCAASGNTFYGYAMGWYRQAPGNERELVASITLSGDSTYYADSVKGRFTISRDNAKNTVYLQMNSLKPEDTAVYYCAGVYTYPLGYYHDTYDYWGQGTQVTVSS
  polyreactivity (PSR sort gate): low polyreactivity

## QVQLVESGGGLVQAGGSLRLSCSASGSTFEGYAMGWYRQAPGKERELVAAITSTGSTNYADSVKGRFTISRDNAKNTVYLQMNSLKPEDTAVYYCAGYPGRVYYFLGHDYWVQGTQVTVSS
  polyreactivity (PSR sort gate): low polyreactivity

## QVQLVESGGGLVQAGGSLRLRCAASGSTFLYYSMGWYREAPGKECELVAAISSTDDSTYADSVKGRFTISRDNAKNTVYLQLNSLKPEDTAVYYCAADVQTLITLGQFDYWGQGTQVTVSS
  polyreactivity (PSR sort gate): low polyreactivity

## QVQLVESGGGLVQAGGSLRLSCAASGRNFRSYAMGWYRQAPGKERELVAAIRRGGSTNYADSVKGRFTISRDNAKNTVYLQMNSLNPEDTAVYYCAARGWSYRSVGYMDYWGQGTQVTVSS
  polyreactivity (PSR sort gate): high polyreactivity

## QVQLEESGGGLVQAGGSLRLSCAASGFTFHPNAMGWYRQAPGKERELVAAIRYSTGRTYYADSVKGRFTISRDNAKNTVYLQMNSLKPEDTAVYYCAREALQYPGLKYNYWGQGTQVTVSS
  polyreactivity (PSR sort gate): low polyreactivity

## QVQLVESGGGLVQAGGSLRLSCAASGFTFEKYVMGWYIQAPGKETEFVAAITRSGGRTYYADSVKGRFTISRDNAKNTVYLQMNSLKPEDTAVYSCNAVTSWAGSLDYWGQGTQVTVSS
  polyreactivity (PSR sort gate): high polyreactivity

## QDQLVESGGGLVQAGGSLRLICAASGSIFDFYTMGWYRQAPGKERELVAAITYSGGRTYYADSVKGRFTISRDNAKNTVYLQMNSLKPEDTAVYYCAASTGSSAYDDYWGQGTQVTVSS
  polyreactivity (PSR sort gate): high polyreactivity

## QVQLVESGGGLVQAGGSLRLSCAASGRIFWHNAMGWYRQAPGKERELVAAISSRGGSTSYADSVKGRFTISRDNAKNTVYLQMNSLKPEDTAVYYCNARNQGYYRVWGYRGDYWGQGTQVTVSS
  polyreactivity (PSR sort gate): low polyreactivity

## QVHLVESGGGLVQAGGSLRLSCAASGRTFIKYAMGWYIQAPGKERELVAAISVSGGRTYYADSVKGRFTISRDKAKNTVYLQMNSLKPEDTAVYYCNKVRVGSLRGYWGQGTQVTVSS
  polyreactivity (PSR sort gate): high polyreactivity

## QVQLVESGGGLVQAGGSLRLSCAASGSNFPSYAMGWYTKAPGEEMEFVARISRGDDSTYYADSVKGRFTISRDNAKNTVYLQMNSLKPEDTAVYYCAADYPDVVYLEYDYWGQGTQVTVSS
  polyreactivity (PSR sort gate): low polyreactivity

## QVQLVESGGGLVQAGGSLRLSCDASGFIFRRYTMGWNRQAPGKETELVPAITSSGGTNYADSVKGRFTISRDNAKNNVFVLRNSLKPEDTAVYYCAARRLTQQGYGGGYWGQGTQVTVAS
  polyreactivity (PSR sort gate): high polyreactivity

## QVQLVESGGGLVQAGVSLRLSCAASGRTFIGNAMGWYRQAPGKEREFVAAISRRGGSTYYADSVKGRFTISRDNAKNTVYLQMNSLKPEDTAVYYCAAGQTTTGILTYYYWGQGTQVTVSS
  polyreactivity (PSR sort gate): high polyreactivity

## QVQLVESGGGLVQAGGTLRLICAASGFTISKYAMGWYRQAPGKERELVAVISSGGLTNYADSVKGRFTISRDNAKNTVYLQMNSLKPEDSEVYYCAAIGWRTRSRFVYWGQGTQVTVAS
  polyreactivity (PSR sort gate): high polyreactivity

## QVQLVESGGGLVQAGGSLRLSCAASGYTLGTYAMGWYRQAPGKERELVAAITWSGGRTNYADSVKGRFTISRDNAKNTVYLQMNSLKPEDTAVYYCAARYYFPFRRFRRMDYWGQGTQVTVSS
  polyreactivity (PSR sort gate): high polyreactivity

## QVQLVESGGGLVQAGGSLRLSCAASGRTFYYYAMGWYRQAPGKERELVARIRSGGSTNYADSVKGRFTISRDNAKNTVYLQMNSLKPEDTAVYYCNALGAKGYVKGFDYWGQGTQVTVSS
  polyreactivity (PSR sort gate): low polyreactivity

## QVQLVESGGGLVQAGGSLRLSCSASGRTFKVYAMGWYRQAPGKERELVAAISYSGAGTRYADSVKGRFTISRDNAKNTVYLQMNSLKPEDTAVYYCNTDAWARVKRYEYWGQGTQVTVSS
  polyreactivity (PSR sort gate): low polyreactivity

## QVQLVESGGGLVQAGGSLRLSCAASGRTFSYYAKGWYRQAPGKESELVSAIRVSGGITYYADSVKGRFTISRDNAKNTVYLQMNTLKPEDTAVYYCNAGVDFIGGRYLTYVYWGQGTQVTVSW
  polyreactivity (PSR sort gate): low polyreactivity

## QVQLVESGGGLDQAGGSLRLSCAASGYTFNLNAMGWYRQAPGKERELVAAISSGDSTDYADSVKGRFTISRDNAKNTVYLQMHSLQPEDTAVYYCNADLPVVWRRDFWGDLYWGQATQVTVSS
  polyreactivity (PSR sort gate): low polyreactivity

## QVQLVESGGGLVQAGGSLRLSCAASGSTFDFNAMGWYRQAPWKEMELVADITRDGSTNYADSVKGRFTISRDNAKNTVYLQMNSLNPEDTAVYYCNAANRPGISGITTQGYYWGQGTQVTVSA
  polyreactivity (PSR sort gate): low polyreactivity

## QVQHVESGGGLVQAGGGLRLSCAASGRIFRQNTMGWYRHAAGKEWELVASISLSAGSTFYADSVKGRFTISRDNAKNTVYLQMNSLKPEDTAVYYCAAEKPVHYVRGVHYDYWGQGTQVTVSS
  polyreactivity (PSR sort gate): low polyreactivity

## QVQLVESGGGLVQAGGSLRLSCAASGLIFYRNAMGWYRQAPGKERELVAAIRFSTGSTYYADSVKGRFTISRDNAKNSVYLQMNSLKPEDSAVYCCAAALPGYGDYYYWGQGTQVTVSS
  polyreactivity (PSR sort gate): high polyreactivity

## QVQLVESGGGLVQAGGSLRLSCAASGSIFNKYAMGWYRQAPGKERELVAAISVSGTRTYYADTVKGRFTISRDNAKNTVYLQMNSLKPEDTAVYYCATKFFRTAYESWGQGTQVTVSS
  polyreactivity (PSR sort gate): high polyreactivity

## QVQLVESGGGLVQAGGSLRLSCAASGLTFGLNAMGWYRQAPGKERELVAAITWSGGSTYYADSVKGRFTISRDNAKNTVYLQMNSLKPEDTAVYYCATDNWSVNGGYNYWGQGTQVTVSS
  polyreactivity (PSR sort gate): low polyreactivity

## QVQLVESGGGLVQAGGSLRLSCAASGFIFYKYVMAWYRQAPGKERELVAAINWSGGSTYYADSVKGRFTISRDNAKNTVYLQMNSLKPEDTAVYYCAALSQYRYDYWGQGTQVTVSS
  polyreactivity (PSR sort gate): high polyreactivity

## QVQLVESGGGLVQEGGSLRLICAASGSTFAANTMGWYRQEPGKERELVAAITDRGGSTYYADSVKGRFTISRDNAKNTVYLQMITLKPEDTAVYYSAAERPPYGYLVVGYVSTQYYYWGQGTQVTVSS
  polyreactivity (PSR sort gate): low polyreactivity

## QVQLVESAGGLVQAGGSLSLSCAASGITFIPNPMGWYRQAPGKERELVAAISISGGRTYYADSVKGRFTISRDNAKNTVYLQMNSLKPEDTAVYYCAADRADFFVIRTIDPYDYWGQGTQVTVSS
  polyreactivity (PSR sort gate): low polyreactivity

## QVQLVESGGGLVQAGCSLRLSCAASGFTFGDNAMGWYRQAPGKDRELDARITGDGSTYYADSVKGRFTISRDNAKNTVYLQTNSLKPEDTAVYYCAADYSPRYTQIEYGYWGQGTQVTVSS
  polyreactivity (PSR sort gate): low polyreactivity

## QVQLVETGGGLVQAGGSLRLSCAAYGFTFEYNAMGWYRQAPGKERELVAAITTTGSTYYADSVKGRFTISRDNAKNTVYLQMNSLKPEDTAVYYCAADPVWRGYSYQFDYWGQGTQVTVSS
  polyreactivity (PSR sort gate): low polyreactivity

## QVQLVESGGGLVQAGGRLRLSCADSGRTYGSNAMGWYRQAPGKERELVAAISGGDTTNYADSVKGRFTISRDNAKNTVYLQMNSLKPEDTAVYYCATDLRPAYDYWGEGTQVTVSS
  polyreactivity (PSR sort gate): low polyreactivity

## QVQLVESGGGLVQAGGSLRLSCAASGFTFYTYAMGWYRQAPGKERELVADISSGGSTNYADSVKGRFTISRDNAKNTVYLQMNSLKPEDTAVYYCSADYYFLDWYDYWGQGTQVTVSS
  polyreactivity (PSR sort gate): low polyreactivity
